{"source": "patent US20250092426", "about": "“CAS ENDONUCLEASES AND RELATED METHODS” (Flagship Pioneering Innovations VII, LLC, published 2025)", "binders": {"B1": {"name": "BFP-to-GFP template RNA ; BFP reporter protospacer (ssRNA ; dsDNA)", "RNA": "GCCGAAGCACUGCACGCCGUGUUUUAGAGCUAGAAAUAGCAAGUUAAAAUAAGGCUAGUCCGUUAUCAACUUGAAAAAGUGGCACCGAGUCGGUGCACCCUGACGUACGGCGUGCAGUGCUU", "DNA 1": "GCCGAAGCACTGCACGCCGT", "DNA 2": "ACGGCGTGCAGTGCTTCGGC"}}, "target": "T1, CasEnd-18 (synthetic construct)", "T1 chain": "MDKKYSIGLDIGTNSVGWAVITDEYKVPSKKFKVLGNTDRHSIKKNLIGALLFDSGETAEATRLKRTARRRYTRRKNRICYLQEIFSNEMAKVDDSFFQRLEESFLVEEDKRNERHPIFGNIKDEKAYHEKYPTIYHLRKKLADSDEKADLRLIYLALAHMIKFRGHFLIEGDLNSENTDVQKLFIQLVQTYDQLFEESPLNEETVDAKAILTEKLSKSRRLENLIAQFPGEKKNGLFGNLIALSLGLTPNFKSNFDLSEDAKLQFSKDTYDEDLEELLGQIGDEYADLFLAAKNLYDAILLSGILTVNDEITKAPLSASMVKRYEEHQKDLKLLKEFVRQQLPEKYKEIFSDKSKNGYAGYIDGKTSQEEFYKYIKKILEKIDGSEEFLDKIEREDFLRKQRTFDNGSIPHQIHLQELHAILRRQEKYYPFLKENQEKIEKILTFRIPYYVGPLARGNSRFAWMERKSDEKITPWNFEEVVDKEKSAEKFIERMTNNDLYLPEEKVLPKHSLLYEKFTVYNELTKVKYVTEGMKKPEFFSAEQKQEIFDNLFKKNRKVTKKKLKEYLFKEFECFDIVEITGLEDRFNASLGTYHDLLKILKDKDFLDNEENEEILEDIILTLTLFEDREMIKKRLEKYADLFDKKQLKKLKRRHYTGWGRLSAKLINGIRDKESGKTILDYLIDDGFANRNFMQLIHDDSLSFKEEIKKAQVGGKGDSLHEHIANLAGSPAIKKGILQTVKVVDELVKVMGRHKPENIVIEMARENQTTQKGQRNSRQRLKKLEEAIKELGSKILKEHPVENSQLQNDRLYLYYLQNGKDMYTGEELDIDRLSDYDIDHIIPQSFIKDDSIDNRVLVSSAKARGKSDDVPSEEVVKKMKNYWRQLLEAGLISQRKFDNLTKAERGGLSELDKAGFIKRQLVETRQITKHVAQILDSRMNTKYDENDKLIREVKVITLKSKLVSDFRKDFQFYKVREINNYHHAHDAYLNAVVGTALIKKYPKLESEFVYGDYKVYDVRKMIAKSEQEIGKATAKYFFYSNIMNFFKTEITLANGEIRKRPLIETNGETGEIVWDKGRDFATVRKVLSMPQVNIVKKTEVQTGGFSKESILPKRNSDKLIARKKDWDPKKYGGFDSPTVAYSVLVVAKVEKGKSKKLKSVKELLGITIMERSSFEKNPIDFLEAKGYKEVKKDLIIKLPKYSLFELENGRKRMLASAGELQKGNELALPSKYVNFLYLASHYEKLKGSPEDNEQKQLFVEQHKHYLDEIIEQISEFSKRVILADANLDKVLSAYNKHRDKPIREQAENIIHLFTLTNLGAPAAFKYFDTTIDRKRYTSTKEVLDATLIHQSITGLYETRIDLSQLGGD", "experiment": "cell_activity; +++; HEK293T; PAM not stated", "how_it_was_run": "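BFP-to-GFP conversion via reverse transcriptase fusion with each Cas endonuclease plus template RNA: 200 ng of each plasmid nucleofected into 250,000 BFP-expressing HEK293T cells (program DS-150). Percent GFP+ cells by flow cytometry at day 4 measured editing.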", "data": [{"binder": "B1", "values": [{"measurement": "activity", "result": "≥ 100 % of reference"}]}]}
